Measured values as given in patent publication US20250263469A1 (HOSPITAL FOR SICK CHILDREN, published 2025).
Numbering of substitutions follows the chain as printed.

B1: mAb 120 (antibody, V domains shown)
VH: QVQLVQSGAEVKKPGASVKVSCKASGYTFTSYDINWVRQAPGQGLEWMGMIDPSGGSTSYAQKFQGRVTMTRDTSTSTVYMELSSLRSEDTAVYYCAKDFGGGTRYDYWYFDLWGRGTLVTVSS
VL: EIVMTQSPATLSVSPGERATLSCRASQSVSSRYLAWYQQKPGQAPRLLIYGASTRATGIPARFSGSGSGTEFTLTISSLQSEDFAVYYCQQYYTTPRTFGQGTRLEIKR
B2: mAb 368 (antibody, V domains shown)
VH: QVQLVQSGAEVKKPGSSVKVSCKASGYTFTSYDINWVRQAPGQGLEWMGAIMPMFGTANYAQKFQGRVTITADESTSTAYMELSSLRSEDTAVYYCARGSSGYYYGWGQGTLVTVSS
VL: not shown
B3: mAb 254 (antibody, V domains shown)
VH: EVQLLESGGGLVQPGGSLRLSCAASGFTFSSSAMHWVRQAPGKGLEWVSAIGTGGDTYYADSVKGRFTISRDNSKNTLYLQMNSLRAEDTAVYYCAREGDGYNFYFDYWGQGTLVTVSS
VL: DIQMTQSPSSLSASVGDRVTITCRASQGISSYLAWYQQKPGKAPKLLIYDASSLQIGVPSRFSGSGSGTDFTLTISSLQPEDFATYYCLQSYSTPPWTFGQGTKVEIKR
B4: mAb 128 (antibody, V domains shown)
VH: QVQLVQSGAEVKKPGASVKVSCKASGYTFTHYYMHWVRQAPGQGLEWMGIINPSSSSASYSQKFQGRVTMTRDTSTSTVYMELSSLRSEDTAVYYCARDGRYGSGSYPFDYWGQGTLVTVSS
VL: DIQMTQSPSSLSASVGDRVTITCRASQNISRYLNWYQQKPGKAPKLLIYDASNLETGVPSRFSGSGSGTDFTLTISSLQPEDFATYYCQQANGFPPTFGQGTKLEIKR
B5: mAb 56 (antibody, V domains shown)
VH: QVQLVQSGAEVKKPGASVKVSCKASGYTFTSYGISWVRQAPGQGLEWMGWISAYNGNTNYAQKLQGRVTMTRDTSTSTVYMELSSLRSEDTAVYYCARDIGPIDYWGQGTLVTVSS
VL: B4 VL with N28G, R31S, N34A, E55Q, T56S, G93S, P96S, L104V
B6: mAb 158 (antibody, V domains shown)
VH: QVQLVQSGAEVKKPGASVKVSCKASGYTFTGYYMHWVRQAPGQGLEWMGWINPLNGGTNFAPKFQGRVTMTRDTSTSTVYMELSSLRSEDTAVYYCARDPGGSYSNDAFDIWGQGTLVTVSS
VL: B4 VL with N28S, T56S, G93S, P96L, Q100G, L104V, E105D
B7: mAb 108 (antibody, V domains shown)
VH: QVQLVQSGAEVKKPGASVKVSCKASGYIFSRYAIHWVRQAPGQGLEWMGWMNPISGNTDYAPNFQGRVTMTRDTSTSTVYMELSSLRSEDTAVYYCAKDGSQLAYLVEYFQHWGQGTLVTVSS
VL: DIQMTQSPSSLSASVGDRVTITCRASQVITNNLAWYQQKPGKAPKLLIYDASTLETGVPSRFSGSGSGTDFTLTISSLQPEDFATYYCQQSYTFPYTFGQGTKVEIKR
B8: mAb 46 (antibody, V domains shown)
VH: EVQLLESGGGLVQPGRSLRLSCAASGFTFSSYAMSWVRQAPGKGLEWVSTIYSGGSTYYADSVKGRFTISRDNSKNTLYLQMNSLRAEDTAVYYCARGDSRDAFDIWGQGTMVTVSS
VL: B7 VL with V28S, T30S, N31S, N32W, T53N, T93S, F94T, Y96F, Q100P, E105D
B9: mAb 64 (antibody, V domains shown)
VH: EVQLLESGGGLVQPGGSLRLSCAASGFPFSQHGMHWVRQAPGKGLEWVSAIDRSGSYIYYADSVKGRFTISRDNSKNTLYLQMNSLRAEDTAVYYCARDTYGGKVTYFDYWGQGTLVTVSS
VL: B7 VL with V28G, T30S, N31S, N32H, T53N, S91T, T93S, F94T, Y96W
B10: mAb 324 (antibody, V domains shown)
VH: QVQLVQSGAEVKKPGASVKVSCKASGGTFNNYGISWVRQAPGQGLEWMGWMNPNSGNTGYAQKFQGRVTMTRDTSTSTVYMELSSLRSEDTAVYYCARVGDYGDYIVSPFDLWGRGTLVTVSS
VL: B4 VL with N28S, S30T, R31T, A91S, N92Y, G93S, F94T, L104V
B11: mAb 82 (antibody, V domains shown)
VH: QVQLVQSGAEVKKPGASVKVSCKASGGSFSTSAFYWVRQAPGQGLEWMGWINPYTGGTNYAQKFQGRVTMTRDTSTSTVYMELSSLRSEDTAVYYCARSRALYGSGSYFDYWGQGTLVTVSS
VL: B4 VL with N28V, R31N, N34A, A91S, N92F, G93S, F94P, K103R
B12: mAb 349 (antibody, V domains shown)
VH: EVQLLESGGGLVQPGGSLRLSCAASGFTFSNYGMHWVRQAPGKGLEWVSGISSAGSITNYADSVKGRFTISRDNSKNTLYLQMNSLRAEDTAVYYCAGNHAGTTVTSEYFQHWGQGTLVTVSS
VL: B7 VL with V28S, T30S, N31S, N32W, A51T, T53N, F94T, Y96W, K103R, V104L
B13: mAb 178 (antibody, V domains shown)
VH: QVQLVQSGAEVKKPGASVKVSCKASGYTFTDYHMHWVRQAPGQGLEWMGWINPNSGGTNYAQKFQGRVTMTRDTSTSTVYMELSSLRSEDTAVYYCARDISSWYEITKFDPWGQGTLVTVSS
VL: EIVMTQSPATLSVSPGERATLSCKASQSVSGTYLAWYQQKPGQAPRLLIYGASTRATGIPARFSGSGSGTEFTLTISSLQSEDFAVYYCLQTHSYPPTFGQGTKVEIKR
B14: mAb 236 (antibody, V domains shown)
VH: QVQLVQSGAEVKKPGASVKVSCKASGGTFTSYGINWVRQAPGQGLEWMGWMNPNSGNTGYAQKFQGRVTMTRDTSTSTVYMELSSLRSEDTAVYYCASRGIQLLPRGMDVWGQGTTVTVSS
VL: not shown
B15: mAb 192 (antibody, V domains shown)
VH: QVQLVQSGAEVKKPGSSVKVSCKASGGTFSSYAISWVRQAPGQGLEWMGWINPNSGGANYAQKFQGRVTITADESTSTAYMELSSLRSEDTAVYYCSTYYYDSSGYSTDYWGQGTLVTVSS
VL: DIVMTQSPLSLPVTPGEPASISCRSSQSLLHSNGYNYLDWYLQKPGQSPQLLIYAASSLQSGVPDRFSGSGSGTDFTLKISRVEAEDVGVYYCMQALQTPYTFGQGTKLEIKR
B16: mAb 180 (antibody, V domains shown)
VH: QVQLVQSGAEVKKPGSSVKVSCKASGYTFTSYAMHWVRQAPGQGLEWMGRISPRSGGTKYAQRFQGRVTITADESTSTAYMELSSLRSEDTAVYYCAREAVAGTHPQAGDFDLWGRGTLVTVSS
VL: B15 VL with M94Q, A96Y, L97Y, Q98S, T99S
B17: mAb 160 (antibody, V domains shown)
VH: QVQLVQSGAEVKKPGASVKVSCKASGYTFTGHDMHWVRQAPGQGLEWMGIINPSGGSTSYAQKFQGRVTMTRDTSTSTVYMELSSLRSEDTAVYYCARANSLRYYYGMDVWGQGTMVTVSS
VL: DIQMTQSPSSLSASVGDRVTITCRASQSVSSWLAWYQQKPGKAPKLLIYAASSLQSGVPSRFSGSGSGTDFTLTISSLQPEDFATYYCQQGYTTPYTFGQGTKLEIKR
B18: mAb 52 (antibody, V domains shown)
VH: QVQLVQSGAEVKKPGSSVKVSCKASGYTFTSYGISWVRQAPGQGLEWMGGIIPMFGTTNYAQKFQGRVTITADKSTSTAYMELSSLRSEDTAVYYCARDRGDTIDYWGQGTLVTVSS
VL: DIQMTQSPSSLSASVGDRVTITCRASQGISNNLNWYQQKPGKAPKLLIYAASSLESGVPSRFSGSGSGTDFTLTISSLQPEDFATYYCQQGNGFPLTFGPGTKVDIKR
B19: 4A8 IgG (antibody, V domains shown)
VH: EVQLVESGAEVKKPGASVKVSCKVSGYTLTELSMHWVRQAPGKGLEWMGGFDPEDGETMYAQKFQGRVTMTEDTSTDTAYMELSSLRSEDTAVYYCATSTAVAGTPDLFDYYYGMDVWGQGTTVTVSS
VL: EIVMTQSPLSSPVTLGQPASISCRSSQSLVHSDGNTYLSWLQQRPGQPPRLLIYKISNRFSGVPDRFSGSGAGTDFTLKISRVEAEDVGVYYCTQATQFPYTFGQGTKVDIK

target: T1, SARS-CoV-2 Spike on pseudotyped virus (PsV) (SARS-CoV-2, UniProt P0DTC2 14-1273); assay: cell-based or functional assay

Binder	IC50 SARS-CoV2 PsV, IgG
B1	> 50 µg/mL
B2	> 50 µg/mL
B3	> 50 µg/mL
B4	> 50 µg/mL
B5	> 50 µg/mL
B6	> 50 µg/mL
B7	> 50 µg/mL
B8	2.1 µg/mL
B9	> 50 µg/mL
B10	0.78 µg/mL
B11	1.6 µg/mL
B12	> 50 µg/mL
B13	> 50 µg/mL
B14	0.057 µg/mL
B15	> 50 µg/mL
B16	> 50 µg/mL
B17	> 50 µg/mL
B18	0.55 µg/mL

target: T1, SARS-CoV-2 Spike on pseudotyped virus …; assay: cell-based or functional assay; remark: another data set of the same source

Binder	Median IC50, SARS-CoV-2 PsV neutralization
B19	> 100 g/mL as printed (µg/mL meant)

target: T1, SARS-CoV-2 Spike on pseudotyped virus …; assay: cell-based or functional assay; remark: another data set of the same source

Binder	Median IC50, SARS-CoV-2 PsV neutralization
B1	> 50 µg/mL
B2	> 50 µg/mL
B3	> 50 µg/mL
B4	> 50 µg/mL
B5	> 50 µg/mL
B6	> 50 µg/mL
B7	> 50 µg/mL
B8	2.1 µg/mL
B9	> 50 µg/mL
B10	0.78 µg/mL
B11	1.6 µg/mL
B12	> 50 µg/mL
B13	> 50 µg/mL
B14	0.057 µg/mL
B15	> 50 µg/mL
B16	> 50 µg/mL
B17	> 50 µg/mL
B18	0.61 µg/mL
